Reference: article PMC11699347, “Heme regulates protein interactions and phosphorylation of BACH2 intrinsically disordered region in humoral response” (iScience, 2024)

T1: His-FLAG-TBK1 (mouse, UniProt Q9WUN2 1-729)
T1 construct: An HRV 3C protease site follows the N-terminal FLAG-8xHis tag; also called FLAG-His-TBK1; recombinant mouse His-FLAG-TBK1; source: Sf9 insect cells (baculovirus), purified (FLAG-M2 agarose, G-25 spin column); not shown: FLAG, N-terminal, kept; 8xHis, N-terminal, kept
T1 sequence (looked up): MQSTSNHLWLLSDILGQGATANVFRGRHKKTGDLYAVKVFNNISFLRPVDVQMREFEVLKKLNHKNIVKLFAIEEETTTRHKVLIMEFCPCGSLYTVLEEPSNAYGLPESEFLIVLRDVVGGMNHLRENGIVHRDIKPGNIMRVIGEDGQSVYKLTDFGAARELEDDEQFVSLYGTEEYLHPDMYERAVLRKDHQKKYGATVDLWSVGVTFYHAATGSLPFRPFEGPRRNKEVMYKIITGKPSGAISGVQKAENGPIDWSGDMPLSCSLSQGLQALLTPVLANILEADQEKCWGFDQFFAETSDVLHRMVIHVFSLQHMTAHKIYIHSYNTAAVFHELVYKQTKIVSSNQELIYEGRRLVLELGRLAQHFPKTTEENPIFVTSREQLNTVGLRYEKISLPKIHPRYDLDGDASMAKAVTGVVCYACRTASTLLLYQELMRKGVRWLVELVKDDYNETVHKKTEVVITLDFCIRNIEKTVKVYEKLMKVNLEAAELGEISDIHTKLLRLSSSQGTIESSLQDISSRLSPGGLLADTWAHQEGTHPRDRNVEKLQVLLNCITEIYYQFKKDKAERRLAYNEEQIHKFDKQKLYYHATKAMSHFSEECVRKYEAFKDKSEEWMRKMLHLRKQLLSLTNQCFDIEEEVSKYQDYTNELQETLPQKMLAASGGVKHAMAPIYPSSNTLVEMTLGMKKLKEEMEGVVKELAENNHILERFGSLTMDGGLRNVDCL

B1: GST-BACH2-381-481 (domain or fragment, mouse, UniProt P97303 381-481, looked up)
chain: KTDYTPLAGNYGQPHVGQKDVSNFAMGSPLRGPGPETLCKQEGELDRRSVIFSASACDQPNTPVHSYSAVSNLDKDLSEPVPKSLWVGAGQSLPSSQAYSH
notes: made by PCR from pGEX6P1-BACH2-IDR; Cloned into pGEX-6P-1; source: E. coli KRX, purified (Glutathione Sepharose 4B)
B2: GST-BACH2-IDR (domain or fragment, mouse, UniProt P97303 331-520, looked up)
chain: SRSVSSPSCLRSLFGITKGVESTGLPSTSQQPLVRSSACPFNKGISQGDLKTDYTPLAGNYGQPHVGQKDVSNFAMGSPLRGPGPETLCKQEGELDRRSVIFSASACDQPNTPVHSYSAVSNLDKDLSEPVPKSLWVGAGQSLPSSQAYSHSGLMADHLPGRIRPNTSCPVPIKVCPRSPPLETRTRTSS
notes: BACH2, mouse, intrinsically disordered region, amino acid region 331-520; Plasmid pGEX6P1-BACH2-IDR; also called recombinant BACH2-331-520 with GST kept; source: E. coli KRX, purified (Glutathione Sepharose 4B)
B3: Slc48a1-MARE (dsDNA)
DNA 1: GCACTCCACTTCTGACTCAGCATTTTGCAGCC
DNA 2: GGCTGCAAAATGCTGAGTCAGAAGTGGAGTGC

Legend:
His-FLAG-TBK1 = target: T1, His-FLAG-TBK1; assay: pull-down; GST fusion on Glutathione Sepharose beads with purified His-FLAG-TBK1 or His-FLAG-DNMT1, with or without heme, 2 h at 4°C; 20 mM HEPES pH 7.0, 50 mM NaCl, 2 mM TCEP; immunoblot; settings: both partners purified
GST-BACH2_331-839 = GST-BACH2_331-839 (UniProt P97303 331-839); assay: EMSA; MafK presence not stated in the material; 32P-labeled ds probes, 30 min incubation, 4% polyacrylamide gel; buffer, salt, pH and temperature not stated; settings: protein: recombinant; tags: N-terminal GST; label: 32P 5' end (PNK)

Binder	binding result (His-FLAG-TBK1)	binding result (GST-BACH2_331-839)
B1	binds	
B2	binds	
B3		binds
